Where “and” joins values, the source holds several entries; their conditions need not be identical. Identical values can stand only once.
Molecular target: the molecule itself
Experiment: cross-linking; purified N-terminal His6-ArgR cross-linked with various amounts of glutaraldehyde (multimers at 0.05%) in 50 mM HEPES pH 8.0, 150 mM KCl, 1 mM L-arginine, with or without 1% beta-mercaptoethanol, room temperature, 2 h; 10% SDS-PAGE, Coomassie staining

B1: Listeria monocytogenes 10403S arginine repressor ArgR (natural protein, UniProt B8DFW1 1-149, looked up)
chain: MNKGHRHIIIRELITSNEIDTQEDLVELLLERDVKVTQATVSRDIKELHLVKVPTQTGGYKYSLPADNSFNPHQKLKRALIDCFIGIDNVQFMIILKVMPGNGNSVGALIDNLDWPEKAGTICGDDTCLIICRSEENAKTLTDRFIDML
notes: ArgR, arginine repressor of the ArgR/AhrC family, Listeria monocytogenes strain 10403S; full-length ORF amplified from the 10403S genome; the his-tagged protein runs at about 23 kDa; also called recombinant ArgR; his-tagged ArgR protein; not shown: His6, N-terminal, kept
- stoichiometry N: 3 and 6

Source: paper PMC5291005, “Listeria monocytogenes 10403S Arginine Repressor ArgR Finely Tunes Arginine Metabolism Regulation under Acidic Conditions” (Frontiers in Microbiology, 2017)
